Patent publication US20250084158A1

Tests used:
[1] = target: human CLL-1 on cells (human) (UniProt Q5QGZ9); test: FACS (PE-anti-human IgG), U937 cells
[2] = target: human CLL-1 on cells (human) (UniProt Q5QGZ9); test: FACS (PE-anti-human IgG), HL-60 cells
[3] = target: human CLL-1 on cells (human) (UniProt Q5QGZ9); test: cell-based or functional assay

Sequence of human CLL-1 on cells (human) (Q5QGZ9 whole entry): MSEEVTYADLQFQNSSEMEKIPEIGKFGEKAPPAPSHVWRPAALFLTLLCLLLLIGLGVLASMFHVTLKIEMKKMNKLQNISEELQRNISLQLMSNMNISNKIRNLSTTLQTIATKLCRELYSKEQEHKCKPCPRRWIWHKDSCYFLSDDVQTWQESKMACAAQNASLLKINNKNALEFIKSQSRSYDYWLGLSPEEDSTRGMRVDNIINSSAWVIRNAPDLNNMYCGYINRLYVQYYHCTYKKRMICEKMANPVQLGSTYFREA

EC50 [1]: 4.53 nM
EC50 [2]: 35.1 nM
CD25 on CD4 T cells, HL60 targets, EC50 [3]: 7.12 nM
CD25 on CD4 T cells, U937 targets, EC50 [3]: 2.53 nM
CD25 on CD8 T cells, HL60 targets, EC50 [3]: 7.68 nM
CD25 on CD8 T cells, U937 targets, EC50 [3]: 2.88 nM
CD69 on CD4 T cells, HL60 targets, EC50 [3]: 2.33 nM
CD69 on CD4 T cells, U937 targets, EC50 [3]: 1.19 nM
CD69 on CD8 T cells, HL60 targets, EC50 [3]: 2.89 nM
CD69 on CD8 T cells, U937 targets, EC50 [3]: 0.713 nM
U937 cell lysis, EC50 [3]: 0.128 nM
Substance: MCLA-117 (bispecific antibody)
